Experimental data reported in paper PMC6004577 (Molecular Biology of the Cell, 2018).

What was measured:
SEC = target: the molecule itself; test: SEC
AUC = target: the molecule itself; test: AUC

B1: α-mDelNT, N-terminal half of mouse α-Delphilin (aa 1-558) (domain or fragment, UniProt Q0QWG9-2 1-558, looked up)
chain: MSCLGIFIPKKHRARFDEVVSQGLLGKLCRARRAQGAQRLRRSRSEERPERLLVSTRASAAPRRPDEPPPRKATSLLGGRTGPGGPRRTVRVYKGNKSFGFTLRGHGPVWIESVLPGSPAENASLKSGDRILFLNGLDMRNCSHDKVVSMLQGSGAMPTLVVEEGPVPFASDSDSLDSPTRASALTSLQWVADILPSSIRVQGRTFSQQLDHLLTPPERYGVCRALERFFQHRNIDTLIVDVYPVLDTPAKQVLWQFLYQLLTYEEQELCQEKIACFLGYTAMTEPESSLDLEPESTPEPTPEPQPRSSLRASSMCRRSLRSQGLETSLSCGPGDCPEMPLPLIPGERQAGDGTSLPETPNPKMMSAVYAELESRLNSSFKGKIGTMSKSRASPPVPSLVGTSGPRTLSGVSWPSDRLLPSPCYDPLCSGGLASPSSSESHPYASLDSSRAPSPQPGLGSIHADSPPSPDPIRPPSRRKLFAFSRPVRSRDTDRFLDALSEQLGPRLSIVDDFLTPENDYEEMSFHDDQGSFVTNERSSASECVSSSEEGSSLTYSSI
With B1 the “stoichiometry N” value (SEC) was 7 ± 1 subunits and the “stoichiometry N” value (AUC) was 6.
